T1: GST-STRADα lacking the last 3 amino acids (Trp-Glu-Phe) (human, UniProt Q7RTN6 1-428)
T1 construct: not shown: glutathione S-transferase (GST) tag, N-terminal, pEBG-2T vector
T1 sequence: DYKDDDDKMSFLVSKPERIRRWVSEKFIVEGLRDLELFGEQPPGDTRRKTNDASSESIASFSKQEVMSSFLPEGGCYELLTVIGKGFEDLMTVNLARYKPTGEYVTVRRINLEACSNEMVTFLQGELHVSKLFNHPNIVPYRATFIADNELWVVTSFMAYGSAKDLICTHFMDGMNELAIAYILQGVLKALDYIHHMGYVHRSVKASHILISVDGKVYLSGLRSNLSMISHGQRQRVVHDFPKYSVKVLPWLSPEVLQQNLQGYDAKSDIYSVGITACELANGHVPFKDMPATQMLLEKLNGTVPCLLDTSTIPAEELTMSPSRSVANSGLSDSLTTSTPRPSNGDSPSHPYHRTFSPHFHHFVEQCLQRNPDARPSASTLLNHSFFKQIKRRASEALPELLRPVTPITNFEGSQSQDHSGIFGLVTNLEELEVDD

T2: Flag-tagged STRADα (human, UniProt Q7RTN6 1-431, limits assumed)
T2 construct: pCMV5 vector; also called Flag-STRADα; FLAG-STRADα
T2 sequence: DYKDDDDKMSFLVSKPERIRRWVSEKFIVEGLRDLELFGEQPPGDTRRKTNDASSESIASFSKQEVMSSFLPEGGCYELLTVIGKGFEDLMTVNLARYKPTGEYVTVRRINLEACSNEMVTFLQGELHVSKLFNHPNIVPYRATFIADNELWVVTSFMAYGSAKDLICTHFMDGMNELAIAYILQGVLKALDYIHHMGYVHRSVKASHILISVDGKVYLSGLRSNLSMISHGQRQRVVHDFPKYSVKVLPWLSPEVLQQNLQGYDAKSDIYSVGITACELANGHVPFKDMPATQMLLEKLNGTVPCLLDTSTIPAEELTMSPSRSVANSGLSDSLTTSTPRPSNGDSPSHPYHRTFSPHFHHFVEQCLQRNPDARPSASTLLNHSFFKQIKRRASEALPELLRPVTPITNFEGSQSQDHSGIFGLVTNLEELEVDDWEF

T3: Flag-tagged STRADβ (human, UniProt Q9C0K7 1-418)
T3 construct: pCMV5 vector; also called Flag-STRADβ; FLAG-STRADβ
T3 sequence: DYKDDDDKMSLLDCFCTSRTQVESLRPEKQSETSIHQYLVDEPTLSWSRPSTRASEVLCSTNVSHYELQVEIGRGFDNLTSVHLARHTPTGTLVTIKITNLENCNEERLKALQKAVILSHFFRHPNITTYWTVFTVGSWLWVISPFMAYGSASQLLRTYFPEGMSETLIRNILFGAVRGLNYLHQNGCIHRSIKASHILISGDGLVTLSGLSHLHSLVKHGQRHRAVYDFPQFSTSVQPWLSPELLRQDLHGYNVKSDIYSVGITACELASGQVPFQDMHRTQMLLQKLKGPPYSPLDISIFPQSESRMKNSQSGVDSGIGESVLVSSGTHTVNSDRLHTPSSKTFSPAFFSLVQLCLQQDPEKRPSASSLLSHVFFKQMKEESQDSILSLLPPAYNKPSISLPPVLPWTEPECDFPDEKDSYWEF

T4: N-terminal Flag epitope tagged wild type LKB1 (mouse, UniProt Q9WTK7 1-436)
T4 construct: not restated for the HeLa lines; also called Flag-LKB1; WT LKB1
T4 sequence: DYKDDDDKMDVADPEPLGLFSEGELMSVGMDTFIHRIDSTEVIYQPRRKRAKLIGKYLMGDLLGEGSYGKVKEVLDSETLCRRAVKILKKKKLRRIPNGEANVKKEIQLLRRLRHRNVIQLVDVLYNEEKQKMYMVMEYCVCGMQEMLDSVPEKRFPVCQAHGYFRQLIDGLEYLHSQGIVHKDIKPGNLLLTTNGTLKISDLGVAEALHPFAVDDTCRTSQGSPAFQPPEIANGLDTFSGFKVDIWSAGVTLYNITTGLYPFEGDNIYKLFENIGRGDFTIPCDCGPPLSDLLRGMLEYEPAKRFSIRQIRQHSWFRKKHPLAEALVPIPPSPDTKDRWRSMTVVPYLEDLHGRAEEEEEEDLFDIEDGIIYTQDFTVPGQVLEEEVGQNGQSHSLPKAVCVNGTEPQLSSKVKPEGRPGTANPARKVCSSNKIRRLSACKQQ

B1: N-terminal Myc-tagged MO25α (other, human, UniProt Q9Y376 1-341, looked up)
chain: MPFPFGKSHKSPADIVKNLKESMAVLEKQDISDKKAEKATEEVSKNLVAMKEILYGTNEKEPQTEAVAQLAQELYNSGLLSTLVADLQLIDFEGKKDVAQIFNNILRRQIGTRTPTVEYICTQQNILFMLLKGYESPEIALNCGIMLRECIRHEPLAKIILWSEQFYDFFRYVEMSTFDIASDAFATFKDLLTRHKLLSAEFLEQHYDRFFSEYEKLLHSENYVTKRQSLKLLGELLLDRHNFTIMTKYISKPENLKLMMNLLRDKSRNIQFEAFHVFKVFVANPNKTQPILDILLKNQAKLIEFLSKFQNDRTEDEQFNDEKTYLVKQIRDLKRPAQQEA
notes: also called Myc-MO25α; myc-MO25α; not shown: only the DNA primer is printed
B2: GST-STRADα lacking the C-terminal 88 residues (other, human)
chain: DYKDDDDKMSFLVSKPERIRRWVSEKFIVEGLRDLELFGEQPPGDTRRKTNDASSESIASFSKQEVMSSFLPEGGCYELLTVIGKGFEDLMTVNLARYKPTGEYVTVRRINLEACSNEMVTFLQGELHVSKLFNHPNIVPYRATFIADNELWVVTSFMAYGSAKDLICTHFMDGMNELAIAYILQGVLKALDYIHHMGYVHRSVKASHILISVDGKVYLSGLRSNLSMISHGQRQRVVHDFPKYSVKVLPWLSPEVLQQNLQGYDAKSDIYSVGITACELANGHVPFKDMPATQMLLEKLNGTVPCLLDTSTIPAEELTMSPSRSVANSGLSDSLTTSTPRPSNGDSPSHP
notes: not shown: glutathione S-transferase (GST) tag, N-terminal, pEBG-2T vector

Assays:
[1] = target: T1, GST-STRADα lacking the last 3 amino …; assay: GST pull-down from co-transfected 293 cells, anti-Myc blot
Procedure: 5 μg of the total cell lysates prior to affinity purification were also subjected to immunoblotting with anti-Myc antibody to ensure that Myc-MO25α was expressed at similar levels in each condition (lower panel). (B) 0.5 mg of the indicated cell lysates was incubated with 5 μg of an N-terminal biotinylated peptide encompassing either the C-terminal 12 residues STRADα conjugated to streptavidin-Sepharose ([…], termed STRADα-C12) or mutants of this peptide in which the indicated residues were individually mutated to Ala. Following isolation and washing of the beads, the samples were subjected to SDS-polyacrylamide gel electrophoresis and immunoblotted with an anti-MO25α antibody. (C) Binding of bacterially expressed MO25α to the indicated peptides was analysed by surface plasmon resonance BiaCore analysis as described in Materials and Methods. […] WEF-C12 corresponds to […], WEA-C12 corresponds to […], AEF-C12 corresponds to […], WAF-C12 corresponds to […], WEF-C6 corresponds to VDDWEF.
Expression of GST-fusion proteins in 293 cells and affinity purification. 10-cm diameter dishes of 293 cells were transiently transfected with 3 to 10 μg of the pEBG-2T constructs using a modified calcium phosphate method (Alessi et al., 1996). […]

[2] = target: B2; assay: GST pull-down from co-transfected 293 cells
Procedure: (§1) FIG. 7. Binding of LKB1 to STRADα creates novel binding site(s) for MO25α. […] Similar results were obtained in 3 separate experiments.
(§2) Expression of GST-fusion proteins in 293 cells and affinity purification. 10-cm diameter dishes of 293 cells were transiently transfected with 3 to 10 μg of the pEBG-2T constructs using a modified calcium phosphate method (Alessi et al., 1996). 36 h post-transfection, the cells were lysed and the clarified lysates were incubated for 1 h on a rotating platform with glutathione-Sepharose (25 μl/dish of lysate) previously equilibrated in lysis Buffer. The beads were washed 4 times with lysis Buffer containing 150 mM NaCl and twice with Buffer A. For immunoblotting analysis, the beads were then resuspended in SDS sample Buffer after this step to give a final volume of slurry of 75 μl, and the samples immunoblotted as described above. For protein kinase assays and gel electrophoresis, the beads were washed a further twice with Buffer A containing 0.27 M sucrose and the proteins were eluted from the resin by incubation with the same buffer containing 20 mM of glutathione. The beads were then removed by filtration through a 0.44-μm filter and the eluate divided into aliquots and stored at −80° C.

Flag-tagged STRADα = target: T2, Flag-tagged STRADα; assay: heterotrimeric complex purified through GST-LKB1 from co-transfected 293 cells, colloidal blue gel and blots
Procedure: (§3) FIG. 4. MO25α is associated with LKB1 through STRAD (A) 293 cells were transfected with plasmids encoding for the expression of the indicated GST fusion proteins together with Myc-MO25α. 36 h post transfection, the GST tagged proteins were affinity purified from the cell lysates using glutathione-Sepharose as described in Materials and Methods. […] 5 μg of total cell lysates prior to affinity purification were also subjected to immunoblotting with anti-Myc antibody to ensure that Myc-MO25α was expressed at similar levels in each co-transfection (lower panel). (B) N-terminal GST tagged LKB1 was expressed in 293 cells in the presence or absence of Flag-STRADα and purified as above. The purified proteins were subjected to SDS-polyacrylamide gel electrophoresis and visualised by Colloidal blue staining (upper panel). The faint protein band indicated, corresponding to an endogenous protein of 40-kDa (marked *), was identified by tryptic peptide mass-spectral fingerprint as endogenously expressed MO25α (with 38% sequence coverage). The purified proteins were also immunoblotted with the indicated antibodies (lower panels). (C) As above except that GST-LKB1 was expressed in 293 cells together with the indicated isoforms of Flag-STRAD and Myc-MO25 and the proteins visualised by colloidal blue staining were also immunoblotted with the indicated antibodies. For all panels, similar results were obtained in at least 3 separate experiments.
(§4) Expression of GST-fusion proteins in 293 cells and affinity purification. 10-cm diameter dishes of 293 cells were transiently transfected with 3 to 10 μg of the pEBG-2T constructs using a modified calcium phosphate method (Alessi et al., 1996). 36 h post-transfection, the cells were lysed and the clarified lysates were incubated for 1 h on a rotating platform with glutathione-Sepharose (25 μl/dish of lysate) previously equilibrated in lysis Buffer.

Flag-tagged STRADβ = target: T3, Flag-tagged STRADβ; assay: as above
Procedure: as §3, §4

[3] = target: T4, N-terminal Flag epitope tagged wild …; assay: GST pull-down from co-transfected 293 cells
Procedure: as §1, §2

Row | binding result [1] | binding result [2] | binding result (Flag-tagged STRADα) | binding result (Flag-tagged STRADβ) | binding result [3] | Binder
1 | no binding | no binding | binds | binds |  | B1
2 |  |  |  |  | no binding | B2

From US20070036793A1, “Methods for use of an lkb1/strad7mo25 complex” (priority 2003, published 2007)
